Experimental data: US20250170216A1 (Protagonist Therapeutics, Inc., priority 2022, published 2025)
Where two headings read alike, the source gives them in different places. Blank lines part the entries; values can stand above or below the compound they belong to.

Legend:
[1] = biological target: T1, ferroportin fused to green fluorescent protein (Mus musculus, UniProt Q9JHI9); details: read-out: EC50 (loss of fluorescence); 24 hours incubation; Hep25 preparations; cited from earlier work
T1 construct: expressed in transfected cells
T1 sequence (Q9JHI9 1-570): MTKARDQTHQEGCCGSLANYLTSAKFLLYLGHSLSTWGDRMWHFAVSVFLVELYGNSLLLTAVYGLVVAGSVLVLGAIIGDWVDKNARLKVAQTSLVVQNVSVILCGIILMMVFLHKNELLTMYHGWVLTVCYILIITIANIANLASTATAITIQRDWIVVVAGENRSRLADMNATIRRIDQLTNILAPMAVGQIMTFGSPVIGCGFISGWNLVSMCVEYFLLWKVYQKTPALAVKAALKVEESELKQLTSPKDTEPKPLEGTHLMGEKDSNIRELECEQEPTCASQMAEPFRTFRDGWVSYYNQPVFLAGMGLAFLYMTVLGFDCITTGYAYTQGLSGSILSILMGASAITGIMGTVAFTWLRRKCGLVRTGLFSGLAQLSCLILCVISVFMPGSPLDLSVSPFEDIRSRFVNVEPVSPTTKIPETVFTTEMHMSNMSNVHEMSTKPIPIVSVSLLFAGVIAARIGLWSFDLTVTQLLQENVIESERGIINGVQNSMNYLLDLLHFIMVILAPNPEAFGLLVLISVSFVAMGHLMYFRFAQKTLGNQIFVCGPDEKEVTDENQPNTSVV

[2] = biological target: T2, ferroportin (Homo sapiens, UniProt Q9NP59); experiment: FPN activity assay: internalization of ferroportin-GFP in stably transfected HEK293 cells; assay type: cell-based; set-up: expressed in transfected cells
T2 sequence (Q9NP59 1-571): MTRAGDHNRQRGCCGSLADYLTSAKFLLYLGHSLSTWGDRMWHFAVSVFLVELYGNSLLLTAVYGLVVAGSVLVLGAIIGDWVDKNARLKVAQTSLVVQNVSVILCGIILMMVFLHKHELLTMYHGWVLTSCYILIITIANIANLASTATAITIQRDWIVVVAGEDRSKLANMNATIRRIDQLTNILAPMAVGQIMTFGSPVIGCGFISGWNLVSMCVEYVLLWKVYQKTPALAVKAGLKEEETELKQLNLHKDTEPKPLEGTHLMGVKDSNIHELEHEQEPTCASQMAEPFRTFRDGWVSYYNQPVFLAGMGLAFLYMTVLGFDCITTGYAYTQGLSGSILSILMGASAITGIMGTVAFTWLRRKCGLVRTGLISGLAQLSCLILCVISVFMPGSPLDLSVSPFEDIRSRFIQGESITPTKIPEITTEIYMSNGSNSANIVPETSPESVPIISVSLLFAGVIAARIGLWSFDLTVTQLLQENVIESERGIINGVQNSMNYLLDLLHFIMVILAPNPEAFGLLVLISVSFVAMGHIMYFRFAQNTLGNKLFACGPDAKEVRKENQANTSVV
Procedure: Peptide analogues were tested in vitro for induction of internalization of the human ferroportin protein. Following internalization, the ferroporin protein is degraded. The assay used (FPN activity assay) measures a decrease in fluorescence of the receptor. The cDNA encoding the human ferroportin (SLC40A1) was cloned from a cDNA clone from Origene (NM_014585). The DNA encoding the ferroportin was amplified by PCR using primers also encoding terminal restriction sites for subcloning, but without the termination codon. The ferroportin receptor was subcloned into a mammalian GFP expression vector containing a neomycin (G418) resistance marker in such that the reading frame of the ferroportin was fused in frame with the GFP protein. The fidelity of the DNA encoding the protein was confirmed by DNA sequencing. HEK293 cells were used for transfection of the ferroportin-GFP receptor expression plasmid. The cells were grown according to standard protocol in growth medium and transfected with the plasmids using Lipofectamine (manufacturer's protocol, Invitrogen). […] The EC50 of these reference compounds for ferroportin internalization/degradation was determined according to the FPN activity assay described above. […]

[3] = biological target: T2, ferroportin; experiment: T47D cell-based ferroportin internalization assay in presence of 0.5% mouse serum albumin (MSA); set-up: a human breast carcinoma adherent cell line which endogenously expresses ferroportin; host or cells: T47D; details: Table 1C
Procedure: The potency of the peptides in causing ferroportin internalization was evaluated in a T47D cell-based assay. […] In this internalization assay, the potency of the test peptides was evaluated in the presence of serum albumin, which is the main protein component in the blood. T47D cells were maintained in RPMI media (containing required amount of fetal bovine serum) and regularly sub-cultured. In preparation for the assay, the cells were seeded in 96-well plates at a density of 80-100 k cells per well in 100 ul volume and allowed to rest overnight. On the next day, test peptides were first prepared in dilution series (10-point series, starting concentration of ˜5 μM, typically 3-4×fold dilution steps), all with 0.5% mouse serum albumin (MSA purified from mouse serum; Sigma, A3139). The test peptide dilution series were allowed to incubate at room temperature for 30 min. Then the media was aspirated from the 96-well cell plate and test peptide dilution series were added. […] The Median Fluorescence Intensity (MFI) of the AF647-positive population was measured (after removing dead cells and non-singlets from the analysis). […] The IC50 potencies were calculated by using 4-parameter non-linear fitting function in Graphpad Prism, and the results are provided in Table 1C.

[4] = biological target: human ferroportin (SLC40A1) fused in frame with GFP, stably expressed in HEK293 cells (human) (UniProt Q9NP59); experiment: cell-based or functional assay
[5] = biological target: ferroportin endogenously expressed on T47D cells (HTB 133, ATCC) (human) (UniProt Q9NP59); experiment: cell-based or functional assay

Compound: CC[C@H](C)[C@@H]1NC(=O)[C@@H](NC(=O)[C@@H](NC(=O)[C@@H]2CCCN2C(=O)[C@H](Cc2ccccc2)NC(=O)[C@H](Cc2c[nH]cn2)NC(=O)[C@@H](NC(=O)[C@@H](N)CC(=O)O)[C@@H](C)O)[C@@H](C)CC)CSSC[C@@H](C(=O)N[C@@H](CCCCN)C(=O)N[C@H](C(=O)O)[C@@H](C)O)NC(=O)[C@@H]2CSSC[C@@H]3NC(=O)[C@@H]4CSSC[C@H](NC(=O)[C@H](Cc5ccccc5)NC1=O)C(=O)N[C@@H](CSSC[C@H](NC(=O)[C@H](CCCCN)NC(=O)[C@H](CO)NC(=O)[C@H](CCCNC(=N)N)NC(=O)[C@H](Cc1c[nH]cn1)NC3=O)C(=O)NCC(=O)N[C@@H](CCSC)C(=O)N2)C(=O)NCC(=O)N4 [Hepcidin, Hy-DTHFPIC(1)IFC(2)C(3)GC(2)C(4)HRSKC(3)GMC(4)C(1)KT-OH]
- EC50 [1]: 5 to 15 nM

Compound: Isovaleric_Acid-E-C-H-DIP-P-C-I-dK-(NMe_Lys_AlbuTag)-dK-C-NH2-Trimethylbenzene (peptide)
- IC50: FPN (nM), FPN internalization assay; *=IC50>500 nM [4]: > 500 nM
- IC50: T47D MSA (nM), T47D internalization assay; *=>500 nM [5]: > 500 nM

Compound: Isovaleric_Acid-E-C-H-DIP-P-C-I-dK-DIP-(NMe_Lys_AlbuTag)-dK-C-am-Trimethylbenzene (peptide)
- IC50: T47D MSA (nM), T47D internalization assay; *=>500 nM [5]: > 500 nM

Compound: Isovaleric_Acid-E-T-H-DIP-P-C-I-[Lys_1PEG2_1PEG2_Ahx_C4_Diacid]-bhF-[dLys_PEG11_OMe]-C-NH2 (peptide)
- IC50: FPN (nM), FPN internalization assay; *=IC50>500 nM [4]: > 500 nM

Compound: Isovaleric_Acid-E-T-H-DIP-P-C-I-[Lys_PEG12_C12_Diacid]-bhF-dK-Pen-NH2 (peptide)
- IC50: FPN (nM), FPN internalization assay; *=IC50>500 nM [4]: > 500 nM

Compound: Mini-Hepcidin 1-9 (peptide)
- Potency EC50 (nM), FPN activity assay [4]: 712 nM

Results, then the compound that gave them:

- DC50 ([2]; Table 6 reference compounds, read-out: Potency EC50): > 10000 nM
Compound: CC[C@@H](C)[C@@H](NC(=O)[C@H](N)Cc1ccccc1)C(=O)N[C@H](CS)C(=O)N[C@@H](C(=O)N1CCC[C@@H]1C(=O)N[C@H](Cc1ccccc1)C(=O)N[C@H](Cc1c[nH]cn1)C(=O)N[C@@H](C(=O)N[C@H](CC(=O)O)C(N)=O)[C@H](C)O)[C@H](C)CC [RI-Mini Hepcidin, Hy-DPhe-DIle-DCys-DIle-DPro-DPhe-DHis-DThr-DAsp-NH2]

- IC50 [3]: 11 to 100 nM
- DC50 ([2]; Table 1C, FPN internalization assay, read-out: IC50: FPN): > 500 nM
Compound: CC[C@H](C)[C@@H]1NC(=O)[C@@H](NC(=O)[C@@H]2CCCN2C(=O)[C@@H](NC(=O)[C@H](Cc2cnc[nH]2)NC(=O)[C@@H](NC(=O)[C@H](CCC(=O)O)NC(=O)CC(C)C)[C@@H](C)O)C(c2ccccc2)c2ccccc2)CSSC(C)(C)[C@@H](C(N)=O)NC(=O)[C@@H](CCCCN)NC(=O)C[C@H](Cc2ccccc2)NC(=O)[C@H](CCCCNC(=O)CCOCCOCCOCCOCCOCCOCCOCCOCCOCCOCCOCCOCCNC(=O)CCCCCCCCCCC(=O)O)NC1=O [compound 4]

- Potency EC50 (nM), FPN activity assay [4]: 34 nM
Compound: Hepcidin (peptide)

- IC50: T47D MSA (nM), T47D internalization assay; *=>500 nM [5]: > 500 nM
Compound: Isovaleric_Acid-E-T-H-DIP-P-C-I-[Lys_PEG12_C6_Diacid]-bhF-[dLys_PEG11_OMe]-Pen-NH2 (peptide)

- IC50: T47D MSA (nM), T47D internalization assay; *=>500 nM [5]: > 500 nM
Compound: Isovaleric_Acid-E-T-H-DIP-P-C-I-dK-bhF-(Lys_Dap_C8_Diacid)-dK-C-NH2 (peptide)

- IC50: T47D MSA (nM), T47D internalization assay; *=>500 nM [5]: > 500 nM
Compound: Isovaleric_Acid-E-hSer-H-DIP-P-C-I-[Lys_1PEG2_1PEG2_Ahx_C18_Diacid]-bhF-[dLys_PEG11_OMe]-C-NH2 (peptide)

- Potency EC50 (nM), FPN activity assay [4]: > 10000 nM
Compound: RI-Mini Hepcidin (peptide)
